Results: PMC8499050

Tests used:
Test in all cases: ITC
[1] = target: human factor X (zymogen) (Homo sapiens) (UniProt P00742)
[2] = target: human factor IX (zymogen) (Homo sapiens) (UniProt P00740)
[3] = target: human activated factor IX (Homo sapiens) (UniProt P00740)
[4] = target: human activated factor X (Homo sapiens) (UniProt P00742)
Sequence of human activated factor X (Homo sapiens) (P00742 235-488, chain 1 of 2): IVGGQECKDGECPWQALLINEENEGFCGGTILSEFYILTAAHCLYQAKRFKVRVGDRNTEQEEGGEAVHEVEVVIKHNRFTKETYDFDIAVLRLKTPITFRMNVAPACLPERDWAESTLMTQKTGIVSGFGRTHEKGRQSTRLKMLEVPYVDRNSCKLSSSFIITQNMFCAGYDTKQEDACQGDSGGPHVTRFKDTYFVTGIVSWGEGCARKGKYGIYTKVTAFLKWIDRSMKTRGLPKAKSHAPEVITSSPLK
Sequence of human activated factor X (Homo sapiens) (P00742 235-488, chain 2 of 2): as the sequence (P00742 235-488, chain 1 of 2) above

Sequence of human factor X (zymogen) (Homo sapiens) (P00742 whole entry, looked up): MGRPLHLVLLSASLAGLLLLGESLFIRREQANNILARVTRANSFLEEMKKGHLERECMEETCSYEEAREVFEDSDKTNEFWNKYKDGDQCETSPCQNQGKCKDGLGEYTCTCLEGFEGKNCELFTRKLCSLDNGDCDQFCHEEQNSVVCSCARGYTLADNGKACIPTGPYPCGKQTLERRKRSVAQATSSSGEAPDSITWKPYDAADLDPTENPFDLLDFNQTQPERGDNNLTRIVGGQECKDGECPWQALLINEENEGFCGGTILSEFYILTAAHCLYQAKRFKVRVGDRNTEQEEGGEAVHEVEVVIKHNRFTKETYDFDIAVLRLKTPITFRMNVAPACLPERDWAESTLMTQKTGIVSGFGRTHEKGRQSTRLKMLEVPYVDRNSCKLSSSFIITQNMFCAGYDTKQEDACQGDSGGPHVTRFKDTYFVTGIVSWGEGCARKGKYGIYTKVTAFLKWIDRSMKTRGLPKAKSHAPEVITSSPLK
Sequence of human factor IX (zymogen) (Homo sapiens) (P00740 47-461): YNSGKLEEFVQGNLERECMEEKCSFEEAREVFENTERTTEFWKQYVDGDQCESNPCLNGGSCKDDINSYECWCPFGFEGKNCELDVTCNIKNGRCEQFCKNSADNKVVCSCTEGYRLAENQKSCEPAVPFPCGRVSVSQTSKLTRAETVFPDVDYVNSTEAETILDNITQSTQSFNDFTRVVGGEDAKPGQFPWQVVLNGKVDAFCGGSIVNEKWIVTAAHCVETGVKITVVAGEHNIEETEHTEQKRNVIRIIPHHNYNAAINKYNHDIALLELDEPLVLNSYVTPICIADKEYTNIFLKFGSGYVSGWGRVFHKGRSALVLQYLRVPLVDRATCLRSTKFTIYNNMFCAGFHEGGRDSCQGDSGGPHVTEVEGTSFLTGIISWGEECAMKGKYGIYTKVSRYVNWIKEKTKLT
Sequence of human activated factor IX (Homo sapiens) (P00740 47-191, chain 1 of 2): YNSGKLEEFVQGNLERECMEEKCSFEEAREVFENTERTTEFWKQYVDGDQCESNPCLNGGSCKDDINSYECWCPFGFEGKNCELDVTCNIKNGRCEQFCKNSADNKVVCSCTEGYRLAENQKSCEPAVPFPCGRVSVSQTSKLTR
Sequence of human activated factor IX (Homo sapiens) (P00740 227-461, chain 2 of 2): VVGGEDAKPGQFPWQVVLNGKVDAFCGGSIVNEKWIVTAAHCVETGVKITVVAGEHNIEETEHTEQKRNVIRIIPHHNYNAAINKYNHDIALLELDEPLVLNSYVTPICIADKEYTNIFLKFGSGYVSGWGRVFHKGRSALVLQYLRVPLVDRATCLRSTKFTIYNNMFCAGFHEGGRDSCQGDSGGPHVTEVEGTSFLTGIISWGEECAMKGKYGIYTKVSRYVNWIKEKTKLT

Kd [1]: 1500 nM | Kd [2]: 4700 nM | Kd [3]: 2300 nM | Kd [4]: 300 nM
Substance: Mim8 (bispecific antibody)
